Data on 24 sequences can be found in the Immune Epitope Database (IEDB).

Usually Kd stands for the concentration at which binding is half-saturated.

The target of one experiment is HLA-B*07:02. The experiment is described as follows: IEDB peptide-MHC binding, purified MHC/competitive/radioactivity; filed as Kd, often an IC50 or EC50 that approximates it; ≥ and ≤ were set here for values at or beyond the usual limits of such assays.
The next experiment concerns the target HLA-B*15:03. Described as above.
Another experiment addresses HLA-B*35:01. Described as above.
The target of the next experiment is HLA-A*01:01. The description is as above. The following applies: source organism: Dengue virus 2 Jamaica/1409/1983.
The target in a further experiment is HLA-B*15:01. The experiment is described as above.
Another experiment deals with HLA-B*08:01. The experiment is described as above. Conditions: source organism: Vaccinia virus WR.
A further experiment deals with HLA-B*53:01. Described as above.
A further experiment addresses HLA-B*51:01. Described as above.
A further experiment addresses HLA-A*02:03. The description is as above. The following applies: source organism: Dengue virus 2 Jamaica/1409/1983.
The target of the next experiment is HLA-A*02:01. The experiment can be described thus: IEDB peptide-MHC binding, purified MHC/competitive/fluorescence; filed as Kd, often an IC50 or EC50 that approximates it; ≥ and ≤ were set here for values at or beyond the usual limits of such assays. Conditions: source organism: Salmonella enterica subsp. enterica serovar Typhi.
The target of the next experiment is HLA-A*26:01. Described as above. The following applies: source organism: Salmonella enterica subsp. enterica serovar Typhi.
In a further experiment the target is HLA-A*32:01. The experiment is described as follows: IEDB peptide-MHC binding, purified MHC/competitive/radioactivity; filed as Kd, often an IC50 or EC50 that approximates it; ≥ and ≤ were set here for values at or beyond the usual limits of such assays. Conditions: source organism: Vaccinia virus WR.
Where [1] appears, read: source organism: Dengue virus 2 Jamaica/1409/1983.
[2] abbreviates: source organism: Vaccinia virus WR.
[3] abbreviates: source organism: Dengue virus 3 Singapore/8120/1995.
[4] abbreviates: source organism: Dengue virus 1 Brazil/97-11/1997.
[5] abbreviates: source organism: Dengue virus 3 Martinique/1243/1999.
Setting [6] is: source organism: Dengue virus 4 Philippines/H241/1956.

Regarding IPMTGPLVA, the dissociation constant (Kd) with HLA-B*07:02 (setting [1]) came out at 50.7 nM.
In the case of FLFLNINHY, the Kd with HLA-B*15:03 (setting [2]) is 6.46 nM.
Still for that read-out and setting: to IMSLFSTSA belongs 7.67 nM.
Take RPMPGTRKVM: the Kd with HLA-B*07:02 (setting [3]) was determined as 1.13 nM; in the experiment with HLA-B*35:01 (setting [3]), 8170 nM.
On to TVIDLDPIPY, for which the Kd with HLA-A*01:01 was 1540 nM; with HLA-B*15:01 (setting [1]), 1.83 nM.
With IKYMIGNFM, the Kd with HLA-B*15:03 (setting [2]) is 2.15 nM.
On the same count and under the same terms, as for SKSRRLNLF, the figure is 2.36 nM.
For the sequence SIIVLFQRF, the results for the Kd with HLA-B*15:01 (setting [2]) and with HLA-B*08:01 were 1.09 nM and 8550 nM, respectively.
Consider LMLVTPSMAM, for which the dissociation constant Kd with HLA-B*15:01 (setting [4]) stood at 7.08 nM.
Take QPMELKYSW: the Kd in the experiment with HLA-B*53:01 (setting [5]) was determined as 7.76 nM.
With SPGKFWNTTI, in the experiment with HLA-B*07:02 (setting [4]), the Kd was 5.6 nM.
With DPASIAARGY, the equilibrium dissociation constant (Kd) with HLA-B*35:01 (setting [1]) was found to be 5620 nM.
In the case of LPVWLSYKV, the Kd amounted to 164 nM with HLA-B*53:01 (setting [4]) and 418 nM with HLA-B*51:01 (setting [4]).
With ILAAVSVSPL, the values for the Kd in the experiment with HLA-A*02:03 and with HLA-B*15:01 (setting [1]) were 13 nM and 28.9 nM, respectively.
Regarding QPFLALGFFL, the Kd in the experiment with HLA-B*07:02 (setting [5]) was 577 nM; in the experiment with HLA-B*35:01 (setting [5]), 200 nM; with HLA-B*51:01 (setting [5]), at least 69600 nM.
Regarding EPGQLKLNW, the Kd with HLA-B*53:01 (setting [1]) was 33.1 nM.
Regarding HVAAFSSLI, the Kd with HLA-A*02:01 worked out at 61.3 nM; with HLA-A*26:01, 57.5 nM.
For WKVLSIMAF, in the experiment with HLA-B*15:03 (source organism: Vaccinia virus Copenhagen), the Kd was 9.29 nM.
As to ISKNAFSCM, the Kd with HLA-B*15:01 (setting [2]) was 78.1 nM.
Take FPTSRTTWSI: the Kd amounted to 55.5 nM with HLA-B*07:02 (setting [6]), 16.4 nM with HLA-B*53:01 (setting [6]), 327 nM with HLA-B*35:01 (setting [6]) and 184 nM in the experiment with HLA-B*51:01 (setting [6]).
On to GPLRMVLAF, for which the dissociation constant (Kd) worked out at 5.58 nM with HLA-B*07:02 (setting [6]), 122 nM with HLA-B*53:01 (setting [6]) and 1230 nM with HLA-B*35:01 (setting [6]).
In the case of IVIGVGDSAL, in the experiment with HLA-B*15:01 (setting [6]), the dissociation constant Kd came out at 27.8 nM.
For the sequence LLYMFPNLF, the values for the Kd in the experiment with HLA-A*32:01 and with HLA-B*15:03 (setting [2]) were 89.7 nM and 0.109 nM, respectively.
With HPGFTVIALF, the dissociation constant Kd in the experiment with HLA-B*53:01 (setting [4]) worked out at 87.9 nM; with HLA-B*35:01 (setting [4]), 101 nM.
